From US20130102527A1
Blank lines part the entries; values can stand above or below the substance they belong to.

Tests used:
[1] = target: proteasome β2 subunit (trypsin-like site) in human cells and cell extracts (human) (UniProt Q99436); assay: cell-based or functional assay
[2] = target: proteasome β5 subunit (chymotrypsin-like site) in human cells and cell extracts (human) (UniProt P28074); assay: cell-based or functional assay
[3] = target: proteasome β1 subunit (caspase-like site) in human cells and cell extracts (human) (UniProt P28072); assay: cell-based or functional assay
[4] = target: trypsin-like site (β2 subunit) of 26S proteasomes purified from rabbit muscle (rabbit) (UniProt G1SWK8); assay: cell-based or functional assay
[5] = target: caspase-like site (β1 subunit) of 26S proteasomes purified from rabbit muscle (rabbit); assay: cell-based or functional assay
[6] = target: chymotrypsin-like site (β5 subunit) of 26S proteasomes purified from rabbit muscle (rabbit) (UniProt G1T4Q9); assay: cell-based or functional assay
[7] = target: proteasome β5 subunit (chymotrypsin-like site) in human cells and cell extracts (human) (UniProt P28074); assay: competition with activity-based probe in living HEK-293 cells, 4 h; Chym-L site
[8] = target: proteasome β2 subunit (trypsin-like site) in human cells and cell extracts (human) (UniProt Q99436); assay: competition with activity-based probe in living HEK-293 cells, 4 h; Tr-L site
[9] = target: caspase-like site (β1 subunit) of yeast 20S proteasome (S. cerevisiae) (UniProt P38624); assay: cell-based or functional assay
Sequence of caspase-like site (β1 subunit) of yeast 20S proteasome (S. cerevisiae) (P38624 20-215): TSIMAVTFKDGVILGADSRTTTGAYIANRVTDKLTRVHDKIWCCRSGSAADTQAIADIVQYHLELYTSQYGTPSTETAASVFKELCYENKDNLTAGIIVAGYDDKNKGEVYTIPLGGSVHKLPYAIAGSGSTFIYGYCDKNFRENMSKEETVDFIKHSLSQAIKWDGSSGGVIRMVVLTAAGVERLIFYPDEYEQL

Sequence of proteasome β1 subunit (caspase-like site) in human cells and cell extracts (human) (P28072 35-239): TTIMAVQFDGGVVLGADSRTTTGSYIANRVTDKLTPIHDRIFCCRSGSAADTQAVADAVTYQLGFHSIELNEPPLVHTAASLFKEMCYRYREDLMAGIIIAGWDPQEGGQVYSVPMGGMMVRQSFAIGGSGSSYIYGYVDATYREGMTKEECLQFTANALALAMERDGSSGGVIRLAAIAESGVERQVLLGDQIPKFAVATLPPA
Sequence of proteasome β5 subunit (chymotrypsin-like site) in human cells and cell extracts (human) (P28074 60-263): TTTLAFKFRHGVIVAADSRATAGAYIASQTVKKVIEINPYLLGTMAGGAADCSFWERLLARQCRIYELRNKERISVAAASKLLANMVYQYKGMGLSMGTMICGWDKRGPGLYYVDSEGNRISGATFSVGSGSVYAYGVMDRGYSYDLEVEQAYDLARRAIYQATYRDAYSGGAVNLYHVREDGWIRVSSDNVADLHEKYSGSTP
Sequence of proteasome β2 subunit (trypsin-like site) in human cells and cell extracts (human) (Q99436 44-277): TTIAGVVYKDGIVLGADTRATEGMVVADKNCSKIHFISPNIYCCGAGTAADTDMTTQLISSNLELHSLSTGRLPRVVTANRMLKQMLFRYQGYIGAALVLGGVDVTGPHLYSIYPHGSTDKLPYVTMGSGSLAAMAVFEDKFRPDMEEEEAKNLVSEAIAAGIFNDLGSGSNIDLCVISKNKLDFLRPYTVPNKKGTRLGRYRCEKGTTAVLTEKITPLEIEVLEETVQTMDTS
Sequence of chymotrypsin-like site (β5 subunit) of 26S proteasomes purified from rabbit muscle (rabbit) (G1T4Q9 entry or part of it): as the sequence (P28074 60-263) above, with E197D counted along it
Sequence of trypsin-like site (β2 subunit) of 26S proteasomes purified from rabbit muscle (rabbit) (G1SWK8 entry or part of it): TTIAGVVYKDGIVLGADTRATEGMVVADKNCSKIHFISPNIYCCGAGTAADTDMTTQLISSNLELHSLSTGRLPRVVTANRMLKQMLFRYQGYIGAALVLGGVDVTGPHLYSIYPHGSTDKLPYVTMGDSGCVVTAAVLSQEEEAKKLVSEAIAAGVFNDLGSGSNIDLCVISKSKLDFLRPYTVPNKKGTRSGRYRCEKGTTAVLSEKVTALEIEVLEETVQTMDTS

Inhibition of active sites (% control): β2; KMS-12-BM, 0.012 µM LU-005, 1 h [1]: -21% | Inhibition of active sites (% control): β2; KMS-12-BM, 0.037 µM LU-005, 1 h [1]: -12% | Inhibition of active sites (% control): β2; KMS-12-BM, 0.11 µM LU-005, 1 h [1]: 4.7% | Inhibition of active sites (% control): β2; KMS-12-BM, 0.33 µM LU-005, 1 h [1]: 3% | Inhibition of active sites (% control): β2; KMS-12-BM, 1.0 µM LU-005, 1 h [1]: 29% | Inhibition of active sites (% control): β2; KMS-18, 0.037 µM LU-005, 1 h [1]: -13% | Inhibition of active sites (% control): β2; KMS-18, 0.11 µM LU-005, 1 h [1]: 12% | Inhibition of active sites (% control): β2; KMS-18, 0.33 µM LU-005, 1 h [1]: 24% | Inhibition of active sites (% control): β2; KMS-18, 1.0 µM LU-005, 1 h [1]: 38% | Inhibition of active sites (% control): β2; KMS-18, 3.0 µM LU-005, 1 h [1]: 50% | Inhibition of active sites (% control): β2; KMS-18, 9.0 µM LU-005, 1 h [1]: 62% | Inhibition of active sites (% control): β2; MM1.R, 0.004 µM LU-005, 1 h [1]: 6.5% | Inhibition of active sites (% control): β2; MM1.R, 0.011 µM LU-005, 1 h [1]: 5% | Inhibition of active sites (% control): β2; MM1.R, 0.043 µM LU-005, 1 h [1]: 5% | Inhibition of active sites (% control): β2; MM1.R, 0.11 µM LU-005, 1 h [1]: 23% | Inhibition of active sites (% control): β2; NCI-H929, 0.0014 µM LU-005, 1 h [1]: -9% | Inhibition of active sites (% control): β2; NCI-H929, 0.004 µM LU-005, 1 h [1]: -13% | Inhibition of active sites (% control): β2; NCI-H929, 0.011 µM LU-005, 1 h [1]: -6% | Inhibition of active sites (% control): β2; NCI-H929, 0.043 µM LU-005, 1 h [1]: 6% | Inhibition of active sites (% control): β2; NCI-H929, 0.11 µM LU-005, 1 h [1]: 11% | Inhibition of active sites (% control): β2; RPMI-8226, 0.012 µM LU-005, 1 h [1]: -21% | Inhibition of active sites (% control): β2; RPMI-8226, 0.037 µM LU-005, 1 h [1]: 1% | Inhibition of active sites (% control): β2; RPMI-8226, 0.11 µM LU-005, 1 h [1]: 3% | Inhibition of active sites (% control): β2; RPMI-8226, 0.33 µM LU-005, 1 h [1]: 13% | Inhibition of active sites (% control): β2; RPMI-8226, 1.0 µM LU-005, 1 h [1]: 22% | Inhibition of active sites (% control): β5; KMS-12-BM, 0.012 µM LU-005, 1 h [2]: 16% | Inhibition of active sites (% control): β5; KMS-12-BM, 0.037 µM LU-005, 1 h [2]: 48% | Inhibition of active sites (% control): β5; KMS-12-BM, 0.11 µM LU-005, 1 h [2]: 56% | Inhibition of active sites (% control): β5; KMS-12-BM, 0.33 µM LU-005, 1 h [2]: 81% | Inhibition of active sites (% control): β5; KMS-12-BM, 1.0 µM LU-005, 1 h [2]: 95% | Inhibition of active sites (% control): β5; KMS-18, 0.037 µM LU-005, 1 h [2]: 14% | Inhibition of active sites (% control): β5; KMS-18, 0.11 µM LU-005, 1 h [2]: 47% | Inhibition of active sites (% control): β5; KMS-18, 0.33 µM LU-005, 1 h [2]: 69% | Inhibition of active sites (% control): β5; KMS-18, 1.0 µM LU-005, 1 h [2]: 85% | Inhibition of active sites (% control): β5; KMS-18, 3.0 µM LU-005, 1 h [2]: 94% | Inhibition of active sites (% control): β5; KMS-18, 9.0 µM LU-005, 1 h [2]: 97% | Inhibition of active sites (% control): β5; MM1.R, 0.004 µM LU-005, 1 h [2]: 17% | Inhibition of active sites (% control): β5; MM1.R, 0.011 µM LU-005, 1 h [2]: 31% | Inhibition of active sites (% control): β5; MM1.R, 0.043 µM LU-005, 1 h [2]: 54% | Inhibition of active sites (% control): β5; MM1.R, 0.11 µM LU-005, 1 h [2]: 76% | Inhibition of active sites (% control): β5; NCI-H929, 0.0014 µM LU-005, 1 h [2]: 22% | Inhibition of active sites (% control): β5; NCI-H929, 0.004 µM LU-005, 1 h [2]: 22% | Inhibition of active sites (% control): β5; NCI-H929, 0.011 µM LU-005, 1 h [2]: 48% | Inhibition of active sites (% control): β5; NCI-H929, 0.043 µM LU-005, 1 h [2]: 72% | Inhibition of active sites (% control): β5; NCI-H929, 0.11 µM LU-005, 1 h [2]: 86% | Inhibition of active sites (% control): β5; RPMI-8226, 0.012 µM LU-005, 1 h [2]: 16% | Inhibition of active sites (% control): β5; RPMI-8226, 0.037 µM LU-005, 1 h [2]: 45% | Inhibition of active sites (% control): β5; RPMI-8226, 0.11 µM LU-005, 1 h [2]: 49% | Inhibition of active sites (% control): β5; RPMI-8226, 0.33 µM LU-005, 1 h [2]: 62% | Inhibition of active sites (% control): β5; RPMI-8226, 1.0 µM LU-005, 1 h [2]: 82% | Inhibition of active sites (% control): β1; KMS-12-BM, 0.012 µM LU-005, 1 h [3]: -34% | Inhibition of active sites (% control): β1; KMS-12-BM, 0.037 µM LU-005, 1 h [3]: -1% | Inhibition of active sites (% control): β1; KMS-12-BM, 0.11 µM LU-005, 1 h [3]: 3% | Inhibition of active sites (% control): β1; KMS-12-BM, 0.33 µM LU-005, 1 h [3]: 6% | Inhibition of active sites (% control): β1; KMS-12-BM, 1.0 µM LU-005, 1 h [3]: 11% | Inhibition of active sites (% control): β1; KMS-18, 0.037 µM LU-005, 1 h [3]: 0% | Inhibition of active sites (% control): β1; KMS-18, 0.11 µM LU-005, 1 h [3]: 21% | Inhibition of active sites (% control): β1; KMS-18, 0.33 µM LU-005, 1 h [3]: 29% | Inhibition of active sites (% control): β1; KMS-18, 1.0 µM LU-005, 1 h [3]: 32% | Inhibition of active sites (% control): β1; KMS-18, 3.0 µM LU-005, 1 h [3]: 39% | Inhibition of active sites (% control): β1; KMS-18, 9.0 µM LU-005, 1 h [3]: 42% | Inhibition of active sites (% control): β1; MM1.R, 0.004 µM LU-005, 1 h [3]: 6% | Inhibition of active sites (% control): β1; MM1.R, 0.011 µM LU-005, 1 h [3]: 3% | Inhibition of active sites (% control): β1; MM1.R, 0.043 µM LU-005, 1 h [3]: 6% | Inhibition of active sites (% control): β1; MM1.R, 0.11 µM LU-005, 1 h [3]: 27% | Inhibition of active sites (% control): β1; NCI-H929, 0.0014 µM LU-005, 1 h [3]: -14% | Inhibition of active sites (% control): β1; NCI-H929, 0.004 µM LU-005, 1 h [3]: -7% | Inhibition of active sites (% control): β1; NCI-H929, 0.011 µM LU-005, 1 h [3]: 5.5% | Inhibition of active sites (% control): β1; NCI-H929, 0.043 µM LU-005, 1 h [3]: 15% | Inhibition of active sites (% control): β1; NCI-H929, 0.11 µM LU-005, 1 h [3]: 6% | Inhibition of active sites (% control): β1; RPMI-8226, 0.012 µM LU-005, 1 h [3]: -34% | Inhibition of active sites (% control): β1; RPMI-8226, 0.037 µM LU-005, 1 h [3]: 16% | Inhibition of active sites (% control): β1; RPMI-8226, 0.11 µM LU-005, 1 h [3]: 23% | Inhibition of active sites (% control): β1; RPMI-8226, 0.33 µM LU-005, 1 h [3]: 37% | Inhibition of active sites (% control): β1; RPMI-8226, 1.0 µM LU-005, 1 h [3]: 37%
Substance: LU-005 (peptide)

IC50 (µM) for sites in 26S proteasomes: Tr-L [4]: 0.11 µM | IC50 (µM) for sites in 26S proteasomes: Casp-L [5]: 23 µM | IC50 (µM) for sites in 26S proteasomes: Chym-L [6]: 0.04 µM
Substance: HMB-Val-Ser-Phe(4-NH2)-VS (49) (peptide)

IC50 [7]: > 50 µM | IC50 [8]: 50 µM | IC50 (µM) for sites: Tr-L [4]: 0.0066 µM | IC50 (µM) for sites: Chym-L [6]: 3.9 µM | inhibition of caspase-like sites of yeast 20S proteasome [9]: > 200 µM
Substance: N3-Phe-Phe(4-CH2NH2)-Leu-Phe(4-CH2NH2)-VS (52) (peptide)

IC50 (µM) for sites: Casp-L [5]: 30 µM
Substance: N3-Phe-Ala(4-pyridine)-Leu-Phe(4-CH2NH2-TFA)-VS (50) (peptide)
